The labels stand for the following.
B1: unnamed (parent)
chain 1: FENAIKKTKNQENNLTLLPIKSTEEEKDDIKNGKDIKKEIDNDKENIKTNNAKDHSTYIKSYLNTNVNDGLKYLFIPSHNSFIKKYSVFNQINDGMLLNEKNDVKNNEDYKNVDYKNVNFLQYDFKELSNYNIANSIDILQEKEGHLDFVIIPHYTFLDYYKHLSYNSIYHKYSTHGKYIAVDAFIKKINERYDQVKSKCNDIKNDLIATIKKLEHPYDINNKNDDSYRYDISEEIDDKSEETDDETEEVEDSIQDTDSNHTPSNKKKNDLMNRTFKKMMDEYNTKKKKLIKCIKNHENDFNKICMDMKNYGTNLFEQLSCYNNNFCNTNGIRYHYDEYIHKLILSVKSKNLNKDLSDMTNILQQSELLLTNLNKKMGSYIYIDTIKFIHKEMKHIFNRIEYHTKIINDKTKIIQDKIKLNIWRTFQKDELLKRILDMSNEYSLFITSDHLRQMLYNTFYSKEKHLNNIFHHLIYVLQMKFNDVPIKMEYFQTYKKNKPLTQ
chain 2: EPGTVFTTVEDLGSKILLTCSLNDSATEVTGHRWLKGGVVLKEDALPGQKTEFKVDSDDQWGEYSCVFLPEPMGTANIQLHGPPRVKAVKSSEHINEGETAMLVCKSESVPPVTDWAWYKITDSEDKALMNGSESRFFVSSSQGRSELHIENLNMEADPGQYRCNGTSSKGSDQAIITLRVRSHLAAL

In this assay the parent is B1. As to the kind of experiment: SPR. As to conditions: read off a plot; for response (response units): with partner chain of the complex shown, plateau of the highest curve of four 2-fold serial dilutions (600 to 75 nM); for screen value: with partner chain of the complex shown;.

The record followed here is article PMC6793842.

Regarding chain 1 FENAIKKTKNQENNLTLLPIKSTEEEKDDIKNGKDIKKEIDNDKENIKTNNAKDHSTYIKSYLNTNVNDGLKYLFIPSHNSFIKKYSVFNQINDGMLLNEKNDVKNNEDYKNVDYKNVNFLQYHFKELSNYNIANSIDILQEKEGHLDFVIIPHYTFLDYYKHLSYNSIYHKYSTHGKYIAVDAFIKKINERYDQVKSKCNDIKNDLIATIKKLEHPYDINNKNDDSYRYDISEEIDDKSEETDDETEEVEDSIQDTDSNHTPSNKKKNDLMNRTFKKMMDEYNTKKKKLIKCIKNHENDFNKICMDMKNYGTNLFEQLSCYNNNFCNTNGIRYHYDEYIHKLILSVKSKNLNKDLSDMTNILQQSELLLTNLNKKMGSYIYIDTIKFIHKEMKHIFNRIEYHTKIINDKTKIIQDKIKLNIWRTFQKDELLKRILDMSNEYSLFITSDHLRQMLYNTFYSKEKHLNNIFHHLIYVLQMKFNDVPIKMEYFQTYKKNKPLTQ [chain 1 D124H], the response (response units) stood at 220 and the screen value came out at 2.6 s.
On to chain 1 FENAIKKTKNQENNLTLLPIKSTEEEKDDIKNGKDIKKEIDNDKENIKTNNAKDHSTYIKSYLNTNVNDGLKYLFIPSHNSFIKKYSVFNQINDGMLLNEKNDVKNNEDYKNVDYKNVNFLQYDFKELSNYNIANSIDILQEKEGHLDFVIIPHYTFLDYYKHLSYNSIYHKSSTHGKYIAVDAFIKKINERYDQVKSKCNDIKNDLIATIKKLEHPYDINNKNDDSYRYDISEEIDDKSEETDDETEEVEDSIQDTDSNHTPSNKKKNDLMNRTFKKMMDEYNTKKKKLIKCIKNHENDFNKICMDMKNYGTNLFEQLSCYNNNFCNTNGIRYHYDEYIHKLILSVKSKNLNKDLSDMTNILQQSELLLTNLNKKMGSYIYIDTIKFIHKEMKHIFNRIEYHTKIINDKTKIIQDKIKLNIWRTFQKDELLKRILDMSNEYSLFITSDHLRQMLYNTFYSKEKHLNNIFHHLIYVLQMKFNDVPIKMEYFQTYKKNKPLTQ [chain 1 Y173S], for which the response (response units) was 260 and the screen value was 2.3 s.
Taken in the same sequence, the figures for chain 1 FENAIKKTKNQENNLTLLPIKSTEEEKDDIKNGKDIKKEIDNDKENIKTNNAKDHSTYIKSYLNTNVNDGLKYLFIPSHNSFIKKYSVFNQINDGMLLNEKNDVKNNEDYKNVDYKNVNFLQYDFKELSNYNIANSIDILQEKEGHLDFVIIPHYTFLDYYKHLSYNSIYHKYSTYGKYIAVDAFIKKINERYDQVKSKCNDIKNDLIATIKKLEHPYDINNKNDDSYRYDISEEIDDKSEETDDETEEVEDSIQDTDSNHTPSNKKKNDLMNRTFKKMMDEYNTKKKKLIKCIKNHENDFNKICMDMKNYGTNLFEQLSCYNNNFCNTNGIRYHYDEYIHKLILSVKSKNLNKDLSDMTNILQQSELLLTNLNKKMGSYIYIDTIKFIHKEMKHIFNRIEYHTKIINDKTKIIQDKIKLNIWRTFQKDELLKRILDMSNEYSLFITSDHLRQMLYNTFYSKEKHLNNIFHHLIYVLQMKFNDVPIKMEYFQTYKKNKPLTQ [chain 1 H176Y] were 340 and 2.4 s.
